Measurements published in patent publication US12508311B2, “Fusion protein, and preparation method and use thereof” (SUN YAT-SEN UNIVERSITY, priority 2021, dated 2025).

Key:
HCT116 cells = assay: Flow cytometry of tumor cell targeting, HCT116; format: cell-based, human; settings: tested as 60 nM TKD-Cy5, 1 hour, Lys 05 10 μM
Protocol: Wherein, the protein C18 column (25 cm×10 mm) was used, with sample injection of 2×400 μL each time, and gradient elution was carried out for 30 minutes, 0.1% TFA (trifluoroacetic acid) solution to MeCN (acetonitrile): H2O (0.1% TFA)=70:30, and a flow rate was 4 mL/min. • (4) Target color tape peaks were collected, and the retention time of a labeled polypeptide was longer than that of an unlabeled polypeptide. • (5) The TKD-Cy5 molecule was diluted to 60 μM, and stored in a PBS solution, and kept in the dark at −20° C. 2. […] The cells were treated with corresponding drugs, namely, in the experimental groups, the cells were treated with 60 nM TKD-Cy5 coupling molecule, and in the control groups, the cells were treated with the Cy5 single molecule with corresponding concentration. The lysosome inhibitor Lys 05 with the final concentration of 10 μM was added into the control groups and the experimental groups at the same time, and the final volume of the culture solution in each well was 1 mL. […] The cells were resuspended with the PBS buffer solution, and centrifuged again, and the supernatant was discarded. The operation was repeated for three times. Finally, the cleaned cells were resuspended in 0.2 mL of PBS, wrapped with foil paper, and then analyzed on the flow cytometer (company: BECKMAN COULTER; model: Cytoflex), with the fluorescence channel of APC-A.

[1] = Residence time in vivo (serum western blot); design: species or system mice
Protocol: • (1) Balb/c nude mice, female, 4 weeks to 5 weeks old, purchased from Guangdong Laboratory Animal Center and raised in Laboratory Animal Center of Sun Yat-sen University, were used in this experiment. […] The serum protein concentration was measured by the BCA method (as described above). 20 μg of serum protein was respectively taken for the WB experiment (as described above), and whole serum protein gel running and Coomassie brilliant blue staining. • (4) Experimental results were shown in FIG. 19.

[2] = test system: KRas protein in SW1116 (KRas G12D); assay: Western blot of KRas degradation in SW1116 cells; format: cell-based
Text: Cell lines used in this embodiment were SW1116 (KRas G12D), SW480 (KRas G12V) and H358 (KRas G12C), all of which came from ATCC and have item numbers of CCL-233, CCL-228 and CRL-5800 respectively. The treatment process of each cell was consistent with that described in the influence of administration time on degradation of KRas above.

[3] = test system: KRas wild-type (HT29) colorectal cancer; assay: In-vivo tumor formation experiment, HT29 subcutaneous tumor; design: species or system mice; settings: seven times
Protocol: (§1) • (1) Balb/c nude mice, female, 4 weeks to 5 weeks old, purchased from Guangdong Laboratory Animal Center and raised in Laboratory Animal Center of Sun Yat-sen University, were used in this experiment. […] After counting, 7.5 million HT29 and HCT116 cells were taken respectively, washed twice with PBS, centrifuged at 300 g for 5 minutes after fishing each washing, and collected. • (3) The cell dilution buffer solution having the composition of PBS: matrix glue (Corning Company)=1:1 was prepared to resuspend the cells. […] In the experiment, the administration volume was 150 μL, the administration frequency was once every three days at a fixed time, and the administration was continued for seven times. • (6) After the administration, each mouse was injected with 150 μL of tribromoethanol, and then killed by cervical dislocation. […]
(§2) • (1) Balb/c nude mice, female, 4 weeks to 5 weeks old, purchased from Guangdong Laboratory Animal Center and raised in Laboratory Animal Center of Sun Yat-sen University, were used in this experiment. The experimental mice were divided into two groups, with five mice in each group, which were respectively a phosphate buffer solution (PBS) control group and a […]. • (2) The HT29 and HCT116 cells in the logarithmic phase were digested with pancreatin, the digestion was stopped with the complete culture solution, and then the cells were counted. […]

[4] = test system: KRas mutant-type (HCT116) colorectal cancer; assay: In-vivo tumor formation experiment, HCT116 subcutaneous tumor; design: species or system mice; settings: seven times
Protocol: as §1, §2

[5] = Toxic and side effects in mice (body weight, HE histopathology); format: in vivo; settings: 25 and 50 mg/kg intraperitoneal, seven times (3 weeks)
Protocol: • (1) Balb/c nude mice, female, 4 weeks to 5 weeks old, purchased from Guangdong Laboratory Animal Center and raised in Laboratory Animal Center of Sun Yat-sen University, were used in this experiment. […] The mice were administered once every three days at a fixed time. Meanwhile, changes in body state, mental state and weight of the mice were observed and recorded. • (3) After continuous administration for seven times (3 weeks), the mice were euthanized (killed by cervical dislocation). […] All the animal experiments were carried out within relevant regulations of animal ethics of Sun Yat-sen University.

[6] = TKD 25 and 50 mg/kg intraperitoneal, once every three days, vs PBS

B1: TKD: fusion protein: tumour-cell-penetrating peptide BR2, anti-KRas nanobody VHH and lysosome recognition peptide CTM; SEQ ID NO.4 (protein)
chain: RAGLQFPVGRLLRRLLRDVQLQESGGGLVQAGGSLRLSCVASGRTFSTYPTGWFRQAPGKEREFVARINLSGGITNYADSVKGRFTISRDNAKNTVYLQMNSLKPEDTAVYYCGGGSTTWAGGIPTNFDYWGQGTQVTVSSGRKFERQKILDQRFFE
HCT116 cells
  entry into cells (flow cytometry, Cy5 fluorescence): could specifically recognize and pass through the cell membrane to enter the colorectal cancer cells
[1]; 50 mg/kg intraperitoneal once, 3 days after administration
  detection in serum after administration (western blot): could still be detected
[1]; inferred from serum detection 3 days after 50 mg/kg
  half-life period in vivo: long
[2]
  degradation of mutated KRas protein (western blot): could induce the degradation of the KRas proteins in different mutation states, and the degradation effect was remarkable
[3]; [6]
  inhibition of tumor growth (tumor weight): could significantly inhibit the growth
[3]; intraperitoneal
  tumor growth inhibition, TKD-50 mg/kg group compared with TKD-25 mg/kg group: had a better effect than the TKD-25 mg/kg group
[4]; [6]
  inhibition of tumor growth (tumor weight): could significantly inhibit the growth
[4]; intraperitoneal
  tumor growth inhibition, TKD-50 mg/kg group compared with TKD-25 mg/kg group: had a better effect than the TKD-25 mg/kg group
[5]; once every three days, vs PBS
  changes in body weight: did not show obvious changes in body weight
[5]
  pathological analysis of lung, liver, spleen and kidney (HE): did not damage vital organs including lung, liver, spleen and kidney of the mice
